Here are results for 2 sequences from paper PMC4509764.

The target of data set [1] is T1, NanR (Clostridium perfringens strain 13) (UniProt P26833).
T1 sequence: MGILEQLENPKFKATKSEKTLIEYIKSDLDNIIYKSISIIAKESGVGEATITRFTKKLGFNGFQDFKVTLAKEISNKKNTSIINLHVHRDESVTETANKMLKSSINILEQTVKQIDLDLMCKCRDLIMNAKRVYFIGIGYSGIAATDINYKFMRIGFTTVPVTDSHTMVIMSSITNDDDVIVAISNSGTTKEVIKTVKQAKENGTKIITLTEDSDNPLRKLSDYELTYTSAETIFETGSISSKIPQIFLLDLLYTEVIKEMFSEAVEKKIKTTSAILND
The experiment in a line: competition. Conditions: 20 mM HEPES pH 7.6, 1 mM EDTA, 10 mM ([…], room temperature 20 min.

For data set [2], the target named is T1, NanR (Clostridium perfringens strain 13). The experiment in a line: EMSA. Conditions: 20 mM HEPES pH 7.6, 1 mM EDTA, 10 mM ([…], room temperature 20 min.

On to “ATATTTTGATACATGCTCTTTTTTTATGAAATAAATTTTCAAAAACAAAAATTATAGGAATAAAAGTGAAAAAAATATGAATAAAAATGGCTTGAAACATAGGTTGTAGGCATATTTGGAAAAACTAAGAACCATAAAATAGAAAAATATTTTCAAAAAGTATTGAAATTCTGTGGGAAAAGGATTACAATAAAAACATAAAGAAAATAATTTTCAGAAAAAAGGTGATAAAATG (double strand) [nanE promoter probe]”, for which the binding entry in data set [1] and in data set [2] was “binds” each time.

In the case of “CTTTCAATAATTACCCCTCCTAATTTATTTCATTAGTATTTATTATATGGTTCTTAACTTAATTATAACTTATTTCTAGGGAAAGTTATTATTAATTAGTAGATAAATATAAAATTTGCGTAGTATAAACTGTATTTTATACAATTTTAGTAATATTAAAGCTTATTTAAACGTATACATAATATAAGGTC (double strand) [nanJ promoter probe]”, the binding entry in data set [2] is “binds more weakly”.
